These results are taken from publication PMC7688234, “Salt Stress Response of Sulfolobus acidocaldarius Involves Complex Trehalose Metabolism Utilizing a Novel Trehalose-6-Phosphate Synthase (TPS)/Trehalose-6-Phosphate Phosphatase (TPP) Pathway” (Applied and Environmental Microbiology, 2020).

In general, stoichiometry N refers to the number of molecules, sites or subunits per partner or assembly. Usually Km stands for the concentration of substrate that gives half-maximal velocity. In general, kcat refers to the number of substrate molecules converted per active site and unit of time at saturation.

Data set [1] deals with the molecule itself. Put plainly: SEC; gel filtration under native conditions against SDS-PAGE under denaturing conditions; Superdex 200 HiLoad 26/60, 30 mM Tris-300 mM NaCl, pH 7. (SEC sorts molecules by how far they enter the pores of the column.)
Substrate in data set [2]: O=c1ccn([C@@H]2O[C@H](CO[P@@](=O)(O)O[P@@](=O)(O)O[C@H]3O[C@H](CO)[C@@H](O)[C@H](O)[C@H]3O)[C@@H](O)[C@H]2O)c(=O)[nH]1
Put plainly: purified protein. It counts as biochemical, Sulfolobus acidocaldarius. Conditions: glycosyl donor, G6P as acceptor (standard 10 mM), 10 mM MgCl2, 50 mM HEPES-KOH pH 7, 55°C.

Substrate in data set [3]: Nc1ncnc2c1ncn2[C@@H]1O[C@H](COP(=O)(O)OP(=O)(O)O[C@H]2O[C@H](CO)[C@@H](O)[C@H](O)[C@H]2O)[C@@H](O)[C@H]1O
Put plainly: purified protein. In kind it is biochemical, Sulfolobus acidocaldarius. To be noted: glycosyl donor, G6P as acceptor (standard 10 mM), 10 mM MgCl2, 50 mM HEPES-KOH pH 7, 55°C.

B1: trehalose-6-phosphate synthase (TPS, Saci_1249) of Sulfolobus acidocaldarius (enzyme, UniProt Q4J9D6 1-444, looked up)
chain: MFSVSISTQTPPVRFRYTYRDLMDKYGFFELPIELSQLDSSDYYFSVGGVPKMMLSLINKFNKVRWVSLGPGYPPQVKYGDQRLFDFIDLDPENLKNYTRYKEGIYNESHGIEKYEIKPSEYISYADYNWISAKKLLEFHNDSDVYFINDFQLLLVGGIIGPSAPAILWYHIPFVPENLSPRIRDFIVRSFEGYDYVILSTKRDLEGLLRIGAKINARQVYPFIDTSTLRRGSKGEVDKVKSKYNIGKDEKVITVVARMDPMKSQDVAIMALKKIKESNAKLLLVGNGSFTSGALGTNKAGNWVRKLQSLASNLGVDKKVVFTGHVSDEELNAIYEASDVIVLPSRIEGFGLVVCEGWFFEKPAIVSSGAGVSELVIDGSNGFVFKSGNYEELAEKIDIVLKEPDKYSRLSRDTVNKCNVEYAFNQLKDIFAQAMKDYGKNVNL
notes: Trehalose-6-phosphate synthase TPS (Saci_1249), Sulfolobus acidocaldarius; gene of 1,335 bp encoding 444 amino acids, calculated mass 50.3 kDa; amplified from genomic DNA with primers that run from the start codon to the stop codon, cloned into pET15b; The N-terminal His tag comes from pET15b; also called GT4-like TPS; source: E. coli BL21(DE3)-CodonPlus, purified …
As to B1, the “stoichiometry N” value in data set [1] is 2. In “purified protein [2]”, the Km turned out to be 3800 µM and the kcat was 4.9 s⁻¹. Moreover, the Km in “purified protein [3]” was determined as 1800 µM.
